Patent US20240132563A1

What was measured:
Test in all cases: cell-based or functional assay
[1] = target: IL-18 polypeptide of SEQ ID NO: 30 (E6K, V11I, C38A, K53A, T63A, C76A, C127A) (human) (UniProt Q14116)
[2] = target: IL-18 polypeptide of SEQ ID NO: 34 (E06K, K53A, S55A) (human) (UniProt Q14116)
[3] = target: IL-18 polypeptide of SEQ ID NO: 35 (Y01G, F02A, E06K, M51G, K53A, D54A, S55A, T63A) (human) (UniProt Q14116)
[4] = target: IL-18 polypeptide of SEQ ID NO: 36 (K53A) (human) (UniProt Q14116)
[5] = target: IL-18 polypeptide of SEQ ID NO: 37 (S55A) (human) (UniProt Q14116)
[6] = target: IL-18 polypeptide of SEQ ID NO: 38 (E06K) (human) (UniProt Q14116)
[7] = target: IL-18 polypeptide of SEQ ID NO: 39 (E06K, K53A) (human) (UniProt Q14116)
[8] = target: IL-18 polypeptide of SEQ ID NO: 4 (E6K, C38A, K53A, C68A, M86C) (human) (UniProt Q14116)
[9] = target: IL-18 polypeptide of SEQ ID NO: 40 (E06K, S55A) (human) (UniProt Q14116)
[10] = target: IL-18 polypeptide of SEQ ID NO: 41 (K53A, S55A) (human) (UniProt Q14116)
[11] = target: IL-18 polypeptide of SEQ ID NO: 42 (E06K, K53A, S55A, T63A) (human) (UniProt Q14116)
[12] = target: IL-18 polypeptide of SEQ ID NO: 43 (E06K, K53A, S55A, Y01G) (human) (UniProt Q14116)
[13] = target: IL-18 polypeptide of SEQ ID NO: 46 (E06K, K53A, S55A, M51G) (human) (UniProt Q14116)
[14] = target: IL-18 polypeptide of SEQ ID NO: 47 (C38S, C68S, C76S, C127S) (human) (UniProt Q14116)
[15] = target: IL-18 polypeptide of SEQ ID NO: 48 (C38S, C68S, C76S, C127S, K70C) (human) (UniProt Q14116)
[16] = target: IL-18 polypeptide of SEQ ID NO: 5 (E6K, V11I, C38A, K53A, T63A, C68A, C76A, M86C, C127A) (human) (UniProt Q14116)
[17] = target: IL-18 polypeptide of SEQ ID NO: 50 (E06K, K53A, T63A) (human) (UniProt Q14116)
[18] = target: IL-18 polypeptide of SEQ ID NO: 51 (T63A) (human) (UniProt Q14116)
[19] = target: IL-18 polypeptide of SEQ ID NO: 52 (E06K, T63A) (human) (UniProt Q14116)
[20] = target: IL-18 polypeptide of SEQ ID NO: 53 (K53A, T63A) (human) (UniProt Q14116)
[21] = target: IL-18 polypeptide of SEQ ID NO: 54 (E06K, K53A, C38S, C68S, C76S, C127S, K70C) (human) (UniProt Q14116)
[22] = target: IL-18 polypeptide of SEQ ID NO: 55 (K53A, T63A, C38S, C68S, C76S, C127S, K70C) (human) (UniProt Q14116)
[23] = target: IL-18 polypeptide of SEQ ID NO: 57 (E6K, C38S, K53A) (human) (UniProt Q14116)
[24] = target: IL-18 polypeptide of SEQ ID NO: 59 (E6K, C38A, K53A) (human) (UniProt Q14116)
[25] = target: IL-18 polypeptide of SEQ ID NO: 6 (E6K, V11I, C38A, K53A, T63A, C68A, C76A, D98C, C127A) (human) (UniProt Q14116)
[26] = target: IL-18 polypeptide of SEQ ID NO: 60 (E6K, C38Q, K53A) (human) (UniProt Q14116)
[27] = target: IL-18 polypeptide of SEQ ID NO: 62 (E6K, C38A, K53A, C127A) (human) (UniProt Q14116)
[28] = target: IL-18 polypeptide of SEQ ID NO: 9 (E6K, C38A, K53A, C68A, D98C) (human) (UniProt Q14116)
IL-18 polypeptide of SEQ ID NO: 9 (E6K, C38A, K53A, C68A, D98C) (human), sequence (Q14116 other isoform, or with tags, fused parts or gaps C38A K53A C68A D98C C38A K53A C68A D98C): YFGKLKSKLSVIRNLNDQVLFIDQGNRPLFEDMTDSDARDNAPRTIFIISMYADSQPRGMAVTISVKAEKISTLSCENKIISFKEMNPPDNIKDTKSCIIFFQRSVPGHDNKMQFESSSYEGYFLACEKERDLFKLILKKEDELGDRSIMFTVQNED

IL-18 polypeptide of SEQ ID NO: 60 (E6K, C38Q, K53A) (human), sequence (Q14116 other isoform, or with tags, fused parts or gaps C38Q K53A C38Q K53A): as the sequence (Q14116 other isoform, or with tags, fused parts or gaps C38A K53A C68A D98C C38A K53A C68A D98C) above, with A38Q, A68C, C98D counted along it
IL-18 polypeptide of SEQ ID NO: 36 (K53A) (human), sequence (Q14116 37-193 K89A): as the sequence (Q14116 other isoform, or with tags, fused parts or gaps C38A K53A C68A D98C C38A K53A C68A D98C) above, with K6E, A38C, A68C, C98D counted along it
IL-18 polypeptide of SEQ ID NO: 37 (S55A) (human), sequence (Q14116 37-193 S91A): as the sequence (Q14116 other isoform, or with tags, fused parts or gaps C38A K53A C68A D98C C38A K53A C68A D98C) above, with K6E, A38C, A53K, S55A, A68C, C98D counted along it
IL-18 polypeptide of SEQ ID NO: 35 (Y01G, F02A, E06K, M51G, K53A, D54A, S55A, T63A) (human), sequence (Q14116 37-193 Y37G/F38A/E42K/M87G/K89A/D90A/S91A/T99A): as the sequence (Q14116 other isoform, or with tags, fused parts or gaps C38A K53A C68A D98C C38A K53A C68A D98C) above, with Y1G, F2A, A38C, M51G, D54A, S55A, T63A, A68C, C98D counted along it
IL-18 polypeptide of SEQ ID NO: 62 (E6K, C38A, K53A, C127A) (human), sequence (Q14116 other isoform, or with tags, fused parts or gaps C38A K53A C127A C38A K53A C127A): as the sequence (Q14116 other isoform, or with tags, fused parts or gaps C38A K53A C68A D98C C38A K53A C68A D98C) above, with A68C, C98D, C127A counted along it
IL-18 polypeptide of SEQ ID NO: 54 (E06K, K53A, C38S, C68S, C76S, C127S, K70C) (human), sequence (Q14116 37-193 E42K/C74S/K89A/C104S/K106C/C112S/C163S): as the sequence (Q14116 other isoform, or with tags, fused parts or gaps C38A K53A C68A D98C C38A K53A C68A D98C) above, with A38S, A68S, K70C, C76S, C98D, C127S counted along it
IL-18 polypeptide of SEQ ID NO: 55 (K53A, T63A, C38S, C68S, C76S, C127S, K70C) (human), sequence (Q14116 37-193 C74S/K89A/T99A/C104S/K106C/C112S/C163S): as the sequence (Q14116 other isoform, or with tags, fused parts or gaps C38A K53A C68A D98C C38A K53A C68A D98C) above, with K6E, A38S, T63A, A68S, K70C, C76S, C98D, C127S counted along it
IL-18 polypeptide of SEQ ID NO: 59 (E6K, C38A, K53A) (human), sequence (Q14116 other isoform, or with tags, fused parts or gaps C38A K53A C38A K53A): as the sequence (Q14116 other isoform, or with tags, fused parts or gaps C38A K53A C68A D98C C38A K53A C68A D98C) above, with A68C, C98D counted along it
IL-18 polypeptide of SEQ ID NO: 6 (E6K, V11I, C38A, K53A, T63A, C68A, C76A, D98C, C127A) (human), sequence (Q14116 other isoform, or with tags, fused parts or gaps with the stated changes): as the sequence (Q14116 other isoform, or with tags, fused parts or gaps C38A K53A C68A D98C C38A K53A C68A D98C) above, with V11I, T63A, C76A, C127A counted along it
IL-18 polypeptide of SEQ ID NO: 51 (T63A) (human), sequence (Q14116 37-193 T99A): as the sequence (Q14116 other isoform, or with tags, fused parts or gaps C38A K53A C68A D98C C38A K53A C68A D98C) above, with K6E, A38C, A53K, T63A, A68C, C98D counted along it
IL-18 polypeptide of SEQ ID NO: 30 (E6K, V11I, C38A, K53A, T63A, C76A, C127A) (human), sequence (Q14116 other isoform, or with tags, fused parts or gaps with the stated changes): as the sequence (Q14116 other isoform, or with tags, fused parts or gaps C38A K53A C68A D98C C38A K53A C68A D98C) above, with V11I, T63A, A68C, C76A, C98D, C127A counted along it
IL-18 polypeptide of SEQ ID NO: 40 (E06K, S55A) (human), sequence (Q14116 37-193 E42K/S91A): as the sequence (Q14116 other isoform, or with tags, fused parts or gaps C38A K53A C68A D98C C38A K53A C68A D98C) above, with A38C, A53K, S55A, A68C, C98D counted along it
IL-18 polypeptide of SEQ ID NO: 4 (E6K, C38A, K53A, C68A, M86C) (human), sequence (Q14116 other isoform, or with tags, fused parts or gaps C38A K53A C68A M86C C38A K53A C68A M86C): as the sequence (Q14116 other isoform, or with tags, fused parts or gaps C38A K53A C68A D98C C38A K53A C68A D98C) above, with M86C, C98D counted along it
IL-18 polypeptide of SEQ ID NO: 48 (C38S, C68S, C76S, C127S, K70C) (human), sequence (Q14116 37-193 C74S/C104S/K106C/C112S/C163S): as the sequence (Q14116 other isoform, or with tags, fused parts or gaps C38A K53A C68A D98C C38A K53A C68A D98C) above, with K6E, A38S, A53K, A68S, K70C, C76S, C98D, C127S counted along it
IL-18 polypeptide of SEQ ID NO: 5 (E6K, V11I, C38A, K53A, T63A, C68A, C76A, M86C, C127A) (human), sequence (Q14116 other isoform, or with tags, fused parts or gaps with the stated changes): as the sequence (Q14116 other isoform, or with tags, fused parts or gaps C38A K53A C68A D98C C38A K53A C68A D98C) above, with V11I, T63A, C76A, M86C, C98D, C127A counted along it
IL-18 polypeptide of SEQ ID NO: 38 (E06K) (human), sequence (Q14116 37-193 E42K): as the sequence (Q14116 other isoform, or with tags, fused parts or gaps C38A K53A C68A D98C C38A K53A C68A D98C) above, with A38C, A53K, A68C, C98D counted along it
IL-18 polypeptide of SEQ ID NO: 57 (E6K, C38S, K53A) (human), sequence (Q14116 other isoform, or with tags, fused parts or gaps C38S K53A C38S K53A): as the sequence (Q14116 other isoform, or with tags, fused parts or gaps C38A K53A C68A D98C C38A K53A C68A D98C) above, with A38S, A68C, C98D counted along it
IL-18 polypeptide of SEQ ID NO: 39 (E06K, K53A) (human), sequence (Q14116 37-193 E42K/K89A): as the sequence (Q14116 other isoform, or with tags, fused parts or gaps C38A K53A C68A D98C C38A K53A C68A D98C) above, with A38C, A68C, C98D counted along it
IL-18 polypeptide of SEQ ID NO: 34 (E06K, K53A, S55A) (human), sequence (Q14116 37-193 E42K/K89A/S91A): as the sequence (Q14116 other isoform, or with tags, fused parts or gaps C38A K53A C68A D98C C38A K53A C68A D98C) above, with A38C, S55A, A68C, C98D counted along it
IL-18 polypeptide of SEQ ID NO: 42 (E06K, K53A, S55A, T63A) (human), sequence (Q14116 37-193 E42K/K89A/S91A/T99A): as the sequence (Q14116 other isoform, or with tags, fused parts or gaps C38A K53A C68A D98C C38A K53A C68A D98C) above, with A38C, S55A, T63A, A68C, C98D counted along it
IL-18 polypeptide of SEQ ID NO: 53 (K53A, T63A) (human), sequence (Q14116 37-193 K89A/T99A): as the sequence (Q14116 other isoform, or with tags, fused parts or gaps C38A K53A C68A D98C C38A K53A C68A D98C) above, with K6E, A38C, T63A, A68C, C98D counted along it
IL-18 polypeptide of SEQ ID NO: 47 (C38S, C68S, C76S, C127S) (human), sequence (Q14116 37-193 C74S/C104S/C112S/C163S): as the sequence (Q14116 other isoform, or with tags, fused parts or gaps C38A K53A C68A D98C C38A K53A C68A D98C) above, with K6E, A38S, A53K, A68S, C76S, C98D, C127S counted along it
IL-18 polypeptide of SEQ ID NO: 52 (E06K, T63A) (human), sequence (Q14116 37-193 E42K/T99A): as the sequence (Q14116 other isoform, or with tags, fused parts or gaps C38A K53A C68A D98C C38A K53A C68A D98C) above, with A38C, A53K, T63A, A68C, C98D counted along it
IL-18 polypeptide of SEQ ID NO: 46 (E06K, K53A, S55A, M51G) (human), sequence (Q14116 37-193 E42K/M87G/K89A/S91A): as the sequence (Q14116 other isoform, or with tags, fused parts or gaps C38A K53A C68A D98C C38A K53A C68A D98C) above, with A38C, M51G, S55A, A68C, C98D counted along it
IL-18 polypeptide of SEQ ID NO: 43 (E06K, K53A, S55A, Y01G) (human), sequence (Q14116 37-193 Y37G/E42K/K89A/S91A): as the sequence (Q14116 other isoform, or with tags, fused parts or gaps C38A K53A C68A D98C C38A K53A C68A D98C) above, with Y1G, A38C, S55A, A68C, C98D counted along it
IL-18 polypeptide of SEQ ID NO: 41 (K53A, S55A) (human), sequence (Q14116 37-193 K89A/S91A): as the sequence (Q14116 other isoform, or with tags, fused parts or gaps C38A K53A C68A D98C C38A K53A C68A D98C) above, with K6E, A38C, S55A, A68C, C98D counted along it
IL-18 polypeptide of SEQ ID NO: 50 (E06K, K53A, T63A) (human), sequence (Q14116 37-193 E42K/K89A/T99A): as the sequence (Q14116 other isoform, or with tags, fused parts or gaps C38A K53A C68A D98C C38A K53A C68A D98C) above, with A38C, T63A, A68C, C98D counted along it

In the case of “Fc-fused human IL-18 binding protein isoform a (IL-18BPa) (from UniProt O95998 31-194) (Fc fusion)”, the IC50 of IL-18BPa inhibition of IFNγ induction in NK-92 cells [1] was 284 nM, the IC50 of IL-18BPa inhibition of IFNγ induction in NK-92 cells [2] was 229 nM and the IC50 of IL-18BPa inhibition of IFNγ induction in NK-92 cells [3] was > 55 nM. For the same substance, the IC50 of IL-18BPa inhibition of IFNγ induction in NK-92 cells [4] was 27.3 nM, the IC50 of IL-18BPa inhibition of IFNγ induction in NK-92 cells [5] was 4.46 nM and the IC50 of IL-18BPa inhibition of IFNγ induction in NK-92 cells [6] was 7.79 nM. For the same substance, the IC50 of IL-18BPa inhibition of IFNγ induction in NK-92 cells [7] was > 703 nM, the IC50 of IL-18BPa inhibition of IFNγ induction in NK-92 cells [8] was 396 nM and the IC50 of IL-18BPa inhibition of IFNγ induction in NK-92 cells [9] was 15 nM. The IC50 of IL-18BPa inhibition of IFNγ induction in NK-92 cells [10] was 37.3 nM, the IC50 of IL-18BPa inhibition of IFNγ induction in NK-92 cells [11] was 1060 nM and the IC50 of IL-18BPa inhibition of IFNγ induction in NK-92 cells [12] was 27.8 nM. It also gave an IC50 of IL-18BPa inhibition of IFNγ induction in NK-92 cells [13] of 0.189 nM, an IC50 of IL-18BPa inhibition of IFNγ induction in NK-92 cells [14] of 0.444 nM and an IC50 of IL-18BPa inhibition of IFNγ induction in NK-92 cells [15] of 0.114 nM. For the same substance, the IC50 of IL-18BPa inhibition of IFNγ induction in NK-92 cells [16] was 62.4 nM, the IC50 of IL-18BPa inhibition of IFNγ induction in NK-92 cells [17] was > 1000 nM and the IC50 of IL-18BPa inhibition of IFNγ induction in NK-92 cells [18] was 0.239 nM. It also gave an IC50 of IL-18BPa inhibition of IFNγ induction in NK-92 cells [19] of 47.1 nM, an IC50 of IL-18BPa inhibition of IFNγ induction in NK-92 cells [20] of 18.2 nM and an IC50 of IL-18BPa inhibition of IFNγ induction in NK-92 cells [21] of 23.5 nM. The IC50 of IL-18BPa inhibition of IFNγ induction in NK-92 cells [22] was > 1000 nM, the IC50 of IL-18BPa inhibition of IFNγ induction in NK-92 cells [23] was 1.62 nM and the IC50 of IL-18BPa inhibition of IFNγ induction in NK-92 cells [24] was 146 nM. For the same substance, the IC50 of IL-18BPa inhibition of IFNγ induction in NK-92 cells [25] was 5.85 nM, the IC50 of IL-18BPa inhibition of IFNγ induction in NK-92 cells [26] was 654 nM and the IC50 of IL-18BPa inhibition of IFNγ induction in NK-92 cells [27] was 780 nM. It also gave an IC50 of IL-18BPa inhibition of IFNγ induction in NK-92 cells [28] of 961 nM.
